The results in this text go back to the DeepSol protein solubility set.

This data set is described as follows: soluble on expression in E. coli; label from the status in PepcDB or PDB records.
“SLAAGVLPQNEQPYSTLVNNSECVANMKGNLERPTPKYTKVGERLRHVIPGHMACSMACGGRACKYENPARWSEQEQAIKGVYSSWVTDNILAMARPSSELLEKYHIIDQFLSHGIKTIINLQRPGEHASCGNPLEQESGFTYLPEAFMEAGIYFYNFGWKDYGVASLTTILDMVKVMTFALQEGKVAIHCHAGLGRTGVLIACYLVFATRMTADQAIIFVRAKRPNSIQTRGQLLCVREFTQFLTPLRNIFSCCDPKAHAVTLPQYLIRQRHLLHGYEARLLKHVPKIIHLVCKLLLDLAE”: the “soluble on expression in E. coli” value is reported as “soluble”.
With “MGSDKIHHHHHHMPPLDLTHIRQHHTVAELIALGKARRQVTPFEKLGTFTPVKRNASDYLKHVREMLVPELLPLRRERMSASAFAFFRGSVELMDYDLDYQSSTEIPAVVCGDAHIGNFGFYASPERRLVFDLNDFDEAGVHPWEWDLRRLLVSVLLAARDSNFKPKKVEKLIQAASASYREALKRMFDQTTLDRFYRDNEVQAVLNFGGAPEDTADLIASLVKKAQKRNSEQVVRKFTVTNSRGERQFKENAPRSVHIDRQTYQGLKAGISEYLLNVRTDVALLLSQYEVTDIIRHSVGVGSFGSLCYLVLLTSTDGSHMVLQIKEALPTRKVGSQSRPALTAAMELTEGQRIVSSQRILQATSDAFLGYFQMENKSFYVRQFRDMKESIDIPTLDWGQFQAYANTCAMILAKAHAQSPTAAMIRGYVGNSAKFDEAMAKWATAYVEQVDNDYQDFLDV”, the “soluble on expression in E. coli” value was “not soluble”.
Next, “HLQGLSAAVLDLTGLAQKGGTVVSHIRLAPSGTANGPVRLDWQQADAAILCDPVAAVAPDSLGALRRDHTRTTVNTYVAPVSDFTRNPDAPLRADALLAKIRHAAGEHVAALDAHAAAQALFGDSILSNMFMLGHAWQRGDVPLALAALARAIELNGVAVAANRAAFDAGRLAAHE”: “not soluble”; “MSLLERLNQDMKLYMKNREKDKLTVVRMVKASLQNEAIKLKKDSLTEDEELTVLSRELKQRKDSLQEFSNANRLDLVDKVQKELDILEVYLPEQLSEEELRTIVNETIAEVGASSKADMGKVMGAIMPKVKGKADGSLINKLVSSQLS”: “soluble”; “MSLKEANLLIDLRGEPGINCNGFCKFCYFRKVNKNNPQPFGCRYCQFTVGCDYCMYSVREINGDFIPLPFALMELQSSLLFKRYSKVNLTAGGDVSCYPQLEELCKAINNIGLKIHLGYTSGKGFDNVEIAKNLVDYGVDEVTFSVFSTNPKLRKEWMNDKNAETALKCLRYFCENCEVHCAIIVIPGVNDGEELKKTVSDLVDWGANAVILMRFANSEEQGLILGNAPLIEGIKPHSVEEFKNIVDEIHNEFGDYIRVTGTPLHDPVAGTPFALAKEENSHILERLKDKINGEATIITGNVAYPFLKKIFDETSVNVVKVNKDIADLITAKDLEKLDLKDVKETVFIPPKAFVHDRVAEEILRRDGVDRIVVRGVEQLTLDGEVSGIYTREEALKFEIEAFEELIGMINFFGMKKQEGHHHHHH”: “soluble”.
Then “SGTVHARSLEPLPSSGPDFGGLGEEAEFVEVEPEAKQEILENKDVVVQHVHFDGLGRTKDDIIICEIGDVFKAKNLIEVMRKSHEAREKLLRLGIFRQVDVLIDTCQGDDALPNGLDVTFEVTELRRLTGSYNTMVGNNEGSMVLGLKLPNLLGRAEKVTFQFSYGTKETSYGLSFFKPRPGNFERNFSVNLYKVTGQFPWSSLRETDRGMSAEYSFPIWKTSHTVKWEGVWRELGCLSRTASFAVRKESGHSLKSSLSHAMVIDSRNSSILPRRGALLKVNQELAGYTGGDVSFIKEDFELQLNKQLIFDSVFSASFWGGMLVPIGDKPSSIADRFYLGGPTSVRGFSMHSIGPQSEGDYLGGEAYWAGGLHLYTPLPFRPGQGGFGELFRTHFFLNAGNLCNLNYGEGPKAHIRKLAECIRWSYGAGIVLRLGNIARLELNYCVPMGVQTGDRICDGVQFGAGIRFL”, with “soluble”.
For “MMHFEVHGRTDAEAPTILLSSGLGGSSAYWLPQIEALSDHFRIVTYDHRGTGRTGGEVPTEGGISAMADDVLEIVSALNLEKFHFMGHALGGLIGLDIALRQPRLIDRLVLINAWSKADPHSGRCFDVRIELLEKSGVDAFVKAQPLFLYPAAWMSEHQERLARDDAHGVAHFQGKTNVLRRIAALRAFDIDARLGEIGNPVLVVATKDDLLVPYTRSLRLAEGLPQSELCLLDFGAHAVNITEPDLFNTRLLQFLLPADQT”, the “soluble on expression in E. coli” value is “not soluble”.
Then “MVIWFFYGFRKIMHLSLKRIIVKCKMSQLDRTSLIQYFNSNGVLISPEALDKLIKYSSSSLIEDLIKNSDGYIDEKYVERYVSRPKVRNDYEVYLPDVRFNASIEDFRKMFVSKYEKLSKIITSSSSMRGSISIKTAKRSQGEVKVVGMVSEVSMTKNGHKRIVIEDLDDSITAIVMKDRGPVNEIILEDEVIGIIGSVSQSSKDPVIFVNEIIRPDIPYRVIDEEKHEPVYVASISDIHVGSKTFRKNEFEAMVRWISGSDPDASRVKYLILSGDVVDGIGVYPDQENDLEILNPLEQYANLAEYLVDVPEDVKVFVMPGNHDTVRLSEPQPVFPGKIRDLFEPNVAFLPNPYNLKLEGKNVLVYHGMSLNDMIELIPGANYDSIGKAIEAILVRRHLSPKYGGNTPMIPSAVDYHVIEEVPDIFITGHIHSHYIGNYKGVRYVNSSTWQSQTEYQKMMNFNPKPSKLTLFDLYSRSVIVKDFDTTLLEHHHHHH”, with “not soluble”; and “VDYKEWYDLRIEALQMQAQMHRSPLRGLIGARVGLIPHQLYIAHEVGQRFAPRVLLADEVGLGKTIEAGLIIHQQLKTGRAERILILVPDSLQYQWMIEMRRRFNLQFSLFDLTRTASIKEHDPDLNPFLTEQCIIASVDLMVDHDDLREQALEAGFDLLVVDEAHHLMWNEEEGGNDRYDLVEELAQQTPGVLLLTATPE”, with “not soluble”.
For “LHRIVDKMHDTSTGIRPSPNMEQGSTYKKTFLGSSLVDWLISSNFAASRLEAVTLASMLMEENFLRPVGVRSMGAIRSGDLAEQFLDDSTALYTFAESYKKKVSSKE”, the “soluble on expression in E. coli” value is given as “soluble”.
Then “MGSDKIHHHHHHMRYSPEALIAFVETVSCGSFSAAARRLRKSQSTISIAIAHLEADLGFSLFDRSSRQPVLTEEGKRVLSYVQAILSASDRLDEVALTLSGETEARLTFVLSDTLHPDSLEELMAQFDRQFPHTEFECLIGENDDVIDLLQKGRAQIGLIEARDDYPTDIGAARLPVQSWMGVYVATTHPLASQTNLQWEQLHTWRELRLNTYLDSNANITRGPAWSAPNYLLLLSMAVQGFGWCVLPCALVEEFAAEKPLAQLDVPGWPRAIAIDLLWNKKTPPGTAGNWLRYHLQQK”, with “not soluble”; and “MEQKQRRFTKNIFVLDVTAKTLCGAIAKLSSQPYCQIKIGRVVAFKPVKNPEPKGYVLNVPGPGAYRIQDGQDIISLMLTPHGVEATTERWEEWKFEGVSVTPMATRVQYNGVMVDAEIKYCKGMGIVQPYMRNDFDRNEMPDLPGVMRSNYDIRELRQKIKNERESAPRLQVHSVARPGSENLYPQ”, with “soluble”.
On to “MTQRLQLTWYNKDKALIPTETGKYGYTWVDPSDPRYCETHTLIFDDYVQGAQTPKSDEFECSERADLQPQDDNLLILGESGDVLEALTRVPELAEKYVGKVKLVYIDPPFNTAQTFASYEDNLEHSIWLTMMRDRLIHMKKLLTNDGSIWVHLDDVEVHRMRVLMDEVFGADRFIATVAWEKDKGRRNDTDISGAHDLILIYAPSGRQWKNVRNLLPRLASQDARYQNPDNDPRGPWLQGDNGTAKSGTEKNRFPVTLPSGRVVTPKGRYWRFSPEGLAEARADGRVWFGKDGDSLPVIKRYLTDVQTGLVPRTWWNADEAGHNQEAKRDHLNKMFPEVENP”, for which the “soluble on expression in E. coli” value is reported as “not soluble”.
For “MSLMTLYPVVVQERTTGEVLMLAYANEEALELTKKTGYAHFFSRERQKIWKKGETSGNTMRVVEIRRDCDDDAYLYIVDFPEDKVACHTGNRSCFFKVEHRFEETGSPTFWLELYRLVRKRKEEMPEGSYTVKLFKEGKGKIAKKFGEEAVEVITGYLQNDRENLVWEIADMMYHLTVLMADAGVTVQDVMRELEKRRKEGHHHHHH”, the “soluble on expression in E. coli” value is given as “soluble”.
Next, “MTGTLLYTKNSALDRSEESGDLSPAKEFSIGPGFLKYVLRVRNEIAAAEYDMSVPTGFEADANCDYCFEQDTCMVVSGRLDQESKAGQLGEPLPEPERAYFERLYRAIEEERREVHAEYRKLWEQSAAERADDDRALVDLDPLGREPLDGGRWALSARRTSDAVSKIREGDRVLASDGHPTQGTAELATVRHLDDEIVVVADEPFELRRIDVYPSELGVDRQLTALHDAVLRGDPDRKDVLFGRREPSFVGDHRPIIDNNESQNEAVNRALAAEDFALIHGPPGTGKTYTLAQTVQALVARGDRVLLSAFTNRAVDNAIEALEAQGFTDVLRWGSESGVRDDMQSYRFDRTGDPRERAAALRDAQVVAATTAACGSRALKQQQFDVAVIDEAGQLTEPGTFLATNRADRFVLVGDHEQLPPVVRAENDLQTSLFEQLIDDYPDAAVMLDRQYRMSQRIQYFASREFYDGQLRPANAEVASQRLADLDGVDVSTLPSALRDAVSFVDPGGSADGNTNPTEADRVADIVSAYLDAGVDPDDIGVIAPFRAQVAELSRRIDEVTVDTVDRFQGSSKEVIIVSFVATGELSSPIFEDYRRVNVALTRAKKALVLVGDATALRSVPFYERMLEWAGLEHHHHHH”: “not soluble”; “MGSDKIHHHHHHMRAPQAQSKLSEVLEFLQQYEGTINPNKLIFGRWIKDAQALRLVDPSEGYMMEAWVYRAQGKLDKALEYMKNAYRLDSSSSSVNVNYASLLLSSGDFNESEKLCIKRIRLDRTNTDIFKILITNTLHTFNQDALFEAIELFIPTNPEAEKVIGQAKKRIFDFDHMQSTLESANLSIEVYKRFSSITQKVRNTRYIGESRTVINCEVNELGTFLLIDEALVNASIEDCLSMYDDLVEEIINDDHYFEEYKKIIFNFIPTTSTAINSAYQLEI”: “not soluble”.
Then “QVKEVQIRFEKDALHNIMEMQYKNYQLSKENIDMVNQKYHDLKHQINILKTQSYTGKSTNYLEKMEREIRVYETQNKTGNQILDAVLTNKAMICQNKEIELKFIVDGEALSFMDDMDVSALFGNMLDNAIESAEKQQEKQKRLIWLYVTREKQFVRIRTENYCDEKIHFKNGMPVTTKKDRRLHGYGMKSIKSTVEKYHGSVVAAQENNWFELKILLPAGR”, with “not soluble”.
Next, “MASAQPLTALPAIPLPGDAGPVDELAAVIALLQTQPADSTGAATDLAARASALVGAPVTVLDERSGVLAGDPTRVAGQVAAPDGSVALGWGPAADDAERWRPLLTQACVWLSMIRRLDGAPAVEPESVAVREVVQQLLSVRDVDQVLTSIAERTLRLLDADICGVMLREGERVCMRACVGNRVAQTARLRMRRGQGLAGLVFDIGRPAKVDTYLEDRTISPDFMSLAEQEETRSALAVPLRLHGELIGVLEVWRRRPSTFTEHDEHRMVVLADIATVAIDNARLHDEQAASTVEAERARDELQQQVAMLNGSSRLQQKLLTTVIEGGGLPAVVHAVAIELGCEVGVFGPDGAMIATHTPGSTPASLPARLPVRARPATPGRWVRPVYADGDQVGQVVLIQGEASAELMDAVAGQVAMACSLALLRERAASRARAQAVDQVLWDLLQGPVQHRVAARSRAQQLGISLLGSLRVLHGQIENVEELAAEQGWDTSHTDKVRRGVLRAVRGVDEARRLPLTGMRGDLLVAVAADLDRASVKDLAAATCAAIHAEWPGLRLTWGVSRERANPMELPNALSEAETALAAARRLGGRNALLYEELGIVRLLLGSGNDPDLQTFIEEVTGPLIAYDRDNDGALIRTLRAFFDADCSQRVAAERLFVHHKTLRYRLERIRQLTGLDLSRHEDRMRADFALRLLQVNQTSDAIGD”: “not soluble”.
